Values quoted from earlier work in paper PMC2582146 (Biochemistry, 2008).

Target: N1P1 domain
Settings: read-out: affinity

B1: C-terminal 70 residues of CFTR: C-terminal 70 residues of CFTR, literature construct (ref 41) (protein, UniProt P13569 1411-1480, looked up, fragment)
chain: QQFLVIEENKVRQYDSIQKLLNERSLFRQAISPSDRVKLFPHRNSSKCKSKPQIAALKEETEEEVQDTRL
**Q.** For B1, which Kd is on record?
**A.** Its Kd is 298 nM.
